Consider two molecules from patent US20140341937A1 (US Dept. of Health and Human Services, published 2014).

In assay [1] the target is T1, CCR4 (human, UniProt P51679 1-360).
T1 sequence (looked up): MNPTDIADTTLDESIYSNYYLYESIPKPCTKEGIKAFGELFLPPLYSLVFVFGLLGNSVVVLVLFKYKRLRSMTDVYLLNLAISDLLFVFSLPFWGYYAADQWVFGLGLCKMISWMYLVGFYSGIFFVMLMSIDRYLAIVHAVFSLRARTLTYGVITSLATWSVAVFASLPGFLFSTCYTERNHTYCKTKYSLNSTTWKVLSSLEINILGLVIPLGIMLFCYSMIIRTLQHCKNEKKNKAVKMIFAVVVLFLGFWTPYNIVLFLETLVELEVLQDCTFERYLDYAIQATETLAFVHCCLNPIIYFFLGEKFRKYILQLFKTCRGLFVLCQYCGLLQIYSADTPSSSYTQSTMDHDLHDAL
Kind of assay: cell-based or functional assay.

The target in assay [2] is T2, CCR8 (human, UniProt P51685 1-355).
T2 construct: whole, on cells; also called human CCR8; HEK/CCR8
The assay can be described thus: flow cytometry on HEK293/CCR8 cells, 30 min at 4° C., anti-EDN antibody detection. On the technique in general: In flow cytometry, cells or beads pass a laser one at a time.

T2 sequence (P51685 whole entry): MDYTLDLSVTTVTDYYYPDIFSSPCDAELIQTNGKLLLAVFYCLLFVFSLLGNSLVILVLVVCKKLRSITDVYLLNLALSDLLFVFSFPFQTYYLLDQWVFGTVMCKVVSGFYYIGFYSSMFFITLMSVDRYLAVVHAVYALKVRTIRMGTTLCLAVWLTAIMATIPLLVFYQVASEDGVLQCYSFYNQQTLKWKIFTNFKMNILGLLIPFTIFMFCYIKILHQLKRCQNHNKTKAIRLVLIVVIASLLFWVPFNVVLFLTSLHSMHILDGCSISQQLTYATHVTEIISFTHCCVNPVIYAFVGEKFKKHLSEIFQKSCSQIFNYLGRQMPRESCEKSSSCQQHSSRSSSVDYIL

B1: TARC-PE38 (ligand)
chain: MARGTNVGRECCLEYFKGAIPLRKLKTWYQTSEDCSRDAIVFVTVQGRAICSDPNNKRVKNAVKYLQSLERSDGGGSGGGGSLEASGGPEGGSLAALTAHQACHLPLETFTRHRQPRGWEQLEQCGYPVQRLVALYLAARLSWNQVDQVIRNALASPGSGGDLGEAIREQPEQARLALTLAAAESERFVRQGTGNDEAGAANGPADSGDALLERNYPTGAEFLGDGGDVSFSTRGTQNWTVERLLQAHRQLEERGYVFVGYHGTFLEAAQSIVFGGVRARSQDLDAIWRGFYIAGDPALAYGYAQDQEPDARGRIRNGALLRVYVPRSSLPGFYRTSLTLAAPEAAGEVERLIGHPLPLRLDAITGPEEEGGRLETILGWPLAERTVVIPSAIPTDPRNVGGDLDPSSIPDKEQAISALPDYASQPGKPPREDLKRSAEEQKLISEEDLAHHHHHH
With B1, the “killing of human T lymphoblastoid CCRF-CEM cells in vitro (IC50)” value in assay [1] is 3 to 8 nM.

B2: MC148-EDN (ligand)
chain: MALARRKCCLNPTNRPIPNPLLQDLSRVDYQAIGHDCGREAFRVTLQDGRQGCVSVGNKSLLDWLRGHKDLCPQIWSGCESLEFNDAQAPKSLEGGGGSKPPQFTWAQWFETQHINMTSQQCTNAMQVINNYQRRCKNQNTFLLTTFANVVNVCGNPNMTCPSNKTRKNCHHSGSQVPLIHCNLTTPSPQNISNCRYAQTPANMFYIVACDNRDQRRDPPQYPVVPVHLDRIIGSAEEQKLISEEDLAHHHHHH
notes: also called MC148-chemotoxin
As to B2, the binding result in assay [2] is “binds”.
